{"source": "paper PMC6155142", "about": "“OCP–FRP protein complex topologies suggest a mechanism for controlling high light tolerance in cyanobacteria” (Nature Communications, 2018)", "molecules": {"B1": {"name": "∆NTE^O, orange form of Synechocystis OCP lacking the N-terminal extension (residues 1–20) (domain or fragment)", "chain": "VPATIARFSQLNAEDQLALIWFAYLEMGKTLTIAAPGAASMQLAENALKEIQAMGPLQQTQAMCDLANRADTPLCRTYASWSPNIKLGFWYRLGELMEQGFVAPIPAGYQLSANANAVLATIQGLESGQQITVLRNAVVDMGFTAGKDGKRIAEPVVPPQDTASRTKVSIEGVTNATVLNYMDNLNANDFDTLIELFTSDGALQPPFQRPIVGKENVLRFFREECQNLKLIPERGVTEPAEDGFTQIKVTGKVQTPWFGGNVGMNIAWRFLLNPEGKIFFVAIDLLASPKELLNFAR"}}, "key": {"[1]": {"target": "OCP(O) (Synechocystis sp.) (UniProt P74102)", "details": "cited from earlier work"}, "[2]": {"target": "∆NTE^O, orange form of Synechocystis OCP lacking the N-terminal extension (residues 1–20) (Synechocystis sp. PCC 6803) (UniProt P74102)", "assay": "cross-linking; FRP species, ∆NTE^O or their mixtures in 20 mM Hepes-NaOH pH 7.5, 150 mM NaCl, 0.1 mM EDTA; 0.1% glutaraldehyde, 25 min, room temperature; 15% SDS-PAGE (no reducing agents with oxFRPcc)", "details": "scale: FRP chains per OCP"}, "[3]": {"target": "T1, OCP–F299C mutant of Synechocystis OCP (Synechocystis sp. PCC 6803, UniProt P74102 1-317, F299C)", "T1 sequence (looked up)": "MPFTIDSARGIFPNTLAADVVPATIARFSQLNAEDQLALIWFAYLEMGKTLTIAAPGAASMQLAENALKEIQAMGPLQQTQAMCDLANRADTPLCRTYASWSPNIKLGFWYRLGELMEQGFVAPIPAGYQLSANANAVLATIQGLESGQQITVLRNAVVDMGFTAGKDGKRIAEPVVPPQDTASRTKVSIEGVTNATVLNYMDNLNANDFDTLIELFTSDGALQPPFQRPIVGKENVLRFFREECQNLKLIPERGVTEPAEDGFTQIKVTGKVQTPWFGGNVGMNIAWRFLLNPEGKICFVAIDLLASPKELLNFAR", "assay": "cell-based or functional assay"}, "[4]": {"target": "the molecule itself", "assay": "SEC; FRP species alone, 1–40 µM per monomer, pre-incubated at least 20 min at room temperature; Superdex 200 Increase 10/300; 20 mM Tris-HCl pH 7.6, 150 mM NaCl, 0.1 mM EDTA, 3 mM βME (reducing); dimer to monomers"}, "[5]": {"target": "T2, ∆NTE^O, orange form of Synechocystis OCP lacking the N-terminal extension (residues 1–20) (Synechocystis sp. PCC 6803, UniProt P74102 21-317)", "T2 construct": "orange carotenoid protein (OCP) of Synechocystis sp; PCC 6803 without the NTE (residues 1–20); also called ∆NTE^O monomer", "T2 sequence (looked up)": "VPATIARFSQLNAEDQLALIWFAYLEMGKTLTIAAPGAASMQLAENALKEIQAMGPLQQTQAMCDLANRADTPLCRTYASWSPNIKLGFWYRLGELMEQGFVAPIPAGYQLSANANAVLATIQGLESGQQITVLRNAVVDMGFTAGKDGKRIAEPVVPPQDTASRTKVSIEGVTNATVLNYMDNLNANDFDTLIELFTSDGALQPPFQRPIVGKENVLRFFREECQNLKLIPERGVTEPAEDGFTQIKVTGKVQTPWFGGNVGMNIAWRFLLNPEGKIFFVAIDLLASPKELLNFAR", "assay": "cross-linking; FRP species, ∆NTE^O or their mixtures in 20 mM Hepes-NaOH pH 7.5, 150 mM NaCl, 0.1 mM EDTA; 0.1% glutaraldehyde, 25 min, room temperature; 15% SDS-PAGE (no reducing agents with oxFRPcc)", "details": "both partners purified"}, "[6]": {"target": "B1"}, "[7]": {"target": "the molecule itself", "assay": "SAXS; oxFRPcc alone (1.7 mg ml^−1) and the ∆NTE^O–oxFRPcc complex (2.41 mg ml^−1, ~40 µM); batch mode, 10 °C, SEC buffer with 3% glycerol, no reducing agents"}, "[8]": {"target": "T2, ∆NTE^O, orange form of Synechocystis …", "assay": "SAXS; oxFRPcc alone (1.7 mg ml^−1) and the ∆NTE^O–oxFRPcc complex (2.41 mg ml^−1, ~40 µM); batch mode, 10 °C, SEC buffer with 3% glycerol, no reducing agents", "details": "both partners purified"}, "[9]": {"target": "T3, oxidized FRPcc (L33C/I43C mutant of Synechocystis FRP), disulfide-trapped dimer (Synechocystis, UniProt P74103 1-109, L33C | I43C, intersubunit disulfide bridges between C33 and C43)", "T3 sequence": "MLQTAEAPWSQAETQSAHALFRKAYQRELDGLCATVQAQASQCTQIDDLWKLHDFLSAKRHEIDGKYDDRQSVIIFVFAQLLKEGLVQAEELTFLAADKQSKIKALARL"}, "[10]": {"target": "T4, COCP, individual C-terminal domain of Synechocystis OCP (amino acids 165–317) (Synechocystis sp. PCC 6803, UniProt P74102 165-317)", "T4 construct": "C-terminal domain of the orange carotenoid protein (OCP) of Synechocystis sp; PCC 6803, amino acids 165–317; also called CTD; individual CTD", "T4 sequence (looked up)": "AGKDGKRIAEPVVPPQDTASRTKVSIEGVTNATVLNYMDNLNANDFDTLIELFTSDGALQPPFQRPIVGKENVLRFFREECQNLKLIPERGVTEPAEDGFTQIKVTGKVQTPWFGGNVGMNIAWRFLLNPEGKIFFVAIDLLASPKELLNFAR", "assay": "SEC; redFRPcc or FRP-L49E (50 µM) pre-incubated with OCP^AA (37 µM), ∆NTE^O (6 µM) or COCP (8 µM); Superdex 200 Increase 10/300; 280 nm and carotenoid-specific absorbance", "details": "both partners purified"}, "[11]": {"target": "T2, ∆NTE^O, orange form of Synechocystis …", "assay": "SEC; redFRPcc or FRP-L49E (50 µM) pre-incubated with OCP^AA (37 µM), ∆NTE^O (6 µM) or COCP (8 µM); Superdex 200 Increase 10/300; 280 nm and carotenoid-specific absorbance", "details": "both partners purified"}, "[12]": {"target": "T5, OCP^Y201A/W288A, constantly active mutant of Synechocystis orange carotenoid protein (Synechocystis sp. PCC 6803, UniProt P74102 1-317, Y201A | W288A)", "T5 construct": "orange carotenoid protein (OCP) of Synechocystis sp; PCC 6803 with Y201A and W288A; also called OCP^AA", "T5 sequence (looked up)": "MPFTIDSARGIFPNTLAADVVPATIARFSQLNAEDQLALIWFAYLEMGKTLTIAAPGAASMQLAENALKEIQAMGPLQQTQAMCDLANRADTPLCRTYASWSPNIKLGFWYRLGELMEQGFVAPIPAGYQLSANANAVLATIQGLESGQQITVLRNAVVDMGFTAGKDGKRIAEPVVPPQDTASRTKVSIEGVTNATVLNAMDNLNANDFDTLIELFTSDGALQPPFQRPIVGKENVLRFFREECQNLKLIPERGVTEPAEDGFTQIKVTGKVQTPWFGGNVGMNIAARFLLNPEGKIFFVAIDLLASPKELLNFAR", "assay": "SEC; redFRPcc or FRP-L49E (50 µM) pre-incubated with OCP^AA (37 µM), ∆NTE^O (6 µM) or COCP (8 µM); Superdex 200 Increase 10/300; 280 nm and carotenoid-specific absorbance", "details": "both partners purified"}, "[13]": {"target": "T1, OCP–F299C mutant of Synechocystis OCP", "assay": "cross-linking; disulfide trapping: OCP–F299C apoform mixed with FRP–F76C or FRP–K102C, oxidized in the dark by dialysis at 4 °C against GSH/GSSG (or 30–60 min with 10–50 mM H2O2); SDS-PAGE with or without 20 mM βME", "details": "both partners purified"}}, "note": "Several values for one entry are separate records, joined by “and”; a condition that tells them apart may be missing. Identical values can stand only once.", "data": [{"molecule": "FRP (from UniProt P74103)", "values": [{"measurement": "Kd", "setting": "[1]", "result": 35000, "unit": "nM"}]}, {"molecule": "FRP homolog from Anabaena variabilis (natural protein)", "values": [{"measurement": "stoichiometry N", "setting": "[2]", "result": "1 and 2"}]}, {"molecule": "wild-type Synechocystis fluorescence recovery protein (FRP), His6-tagged, residues 1–109 (natural protein, UniProt P74103 1-109, looked up, fluorescence recovery protein (FRP) of Synechocystis, residues 1–109; cloned into pQE81L by BamHI/HindIII; Uncleavable tag; Dissociable dimer; also called FRPwt; wild-type FRP; not shown: His6, N-terminal, kept) MLQTAEAPWSQAETQSAHALFRKAYQRELDGLLATVQAQASQITQIDDLWKLHDFLSAKRHEIDGKYDDRQSVIIFVFAQLLKEGLVQAEELTFLAADKQSKIKALARL", "values": [{"measurement": "acceleration of the R–O conversion of photoactivated OCP–F299C at 25 °C", "setting": "[3]", "result": "~20", "unit": "fold"}, {"measurement": "stoichiometry N", "setting": "[4]", "result": 2}, {"measurement": "stoichiometry N", "setting": "[5]", "result": "1 FRP chains per OCP (printed as OCP:FRP 1:1) and 2 FRP chains per OCP (printed as OCP:FRP 1:2)"}, {"measurement": "Kd", "setting": "[6]", "result": 190, "unit": "nM"}]}, {"molecule": "oxidized FRPcc (L33C/I43C mutant of Synechocystis FRP), disulfide-trapped dimer (natural protein, UniProt P74103 1-109, looked up, intersubunit disulfide bridges between C33 and C43, fluorescence recovery protein (FRP) of Synechocystis, residues 1–109, with L33C and I43C; made from the His6-tagged wild-type template; Same polypeptide as m3, but covalently fixed as a dimer that cannot monomerize; 22 N-terminal residues of the construct are absent from 4JDX; also called oxFRPcc; oxFRPcc dimer; source: E. coli T7 SHuffle express, purified in the absence of reducing agents, …) MLQTAEAPWSQAETQSAHALFRKAYQRELDGLCATVQAQASQCTQIDDLWKLHDFLSAKRHEIDGKYDDRQSVIIFVFAQLLKEGLVQAEELTFLAADKQSKIKALARL", "values": [{"measurement": "stoichiometry N", "setting": "[5]", "result": "2 FRP chains per OCP (printed as OCP:FRP 1:2) and 1 FRP chains per OCP (printed as OCP:FRP 2:2)"}, {"measurement": "stoichiometry N", "setting": "[7]", "result": 2}, {"measurement": "stoichiometry N", "setting": "[8]", "result": "2 FRP chains per OCP (printed as 2:1)"}]}, {"molecule": "B1", "values": [{"measurement": "Kd", "setting": "[9]", "result": 220, "unit": "nM"}]}, {"molecule": "FRPcc (L33C/I43C mutant of Synechocystis FRP) under reducing conditions (natural protein, UniProt P74103 1-109, looked up, fluorescence recovery protein (FRP) of Synechocystis, residues 1–109, with L33C and I43C; made from the His6-tagged wild-type template; Cysteines reduced; dissociable dimer (dimeric above 10 µM load, partly dissociates on dilution); also called redFRPcc; not shown: His6, N-terminal, kept) MLQTAEAPWSQAETQSAHALFRKAYQRELDGLCATVQAQASQCTQIDDLWKLHDFLSAKRHEIDGKYDDRQSVIIFVFAQLLKEGLVQAEELTFLAADKQSKIKALARL", "values": [{"measurement": "binding result", "setting": "[10]", "result": "binds"}, {"measurement": "binding result", "setting": "[11]", "result": "binds"}, {"measurement": "binding result", "setting": "[12]", "result": "binds"}, {"measurement": "stoichiometry N", "setting": "[4]", "result": 2}]}, {"molecule": "FRP–K102C mutant of Synechocystis FRP (natural protein, UniProt P74103 1-109, looked up, fluorescence recovery protein (FRP) of Synechocystis with K102C, from M1 (N-terminus after cleavage of the tag: GPDPATM1LQ…); the wild-type construct is residues 1–109; pQE81M vector; the His6 tag is cleavable by 3C protease and leaves GPDPAT before M1) MLQTAEAPWSQAETQSAHALFRKAYQRELDGLLATVQAQASQITQIDDLWKLHDFLSAKRHEIDGKYDDRQSVIIFVFAQLLKEGLVQAEELTFLAADKQSCIKALARL", "values": [{"measurement": "stoichiometry N", "setting": "[13]", "result": "1 FRP chains per OCP (printed as 1:1)"}]}]}
